We go through three substances from patent publication US20230312684A1 (PINETREE THERAPEUTICS, published 2023).

pEC50: −log10 of the molar value.

Test [1] concerns the target SARS-CoV-2 (antigen of the ELISA of Example 17; protein not specified) (SARS-CoV-2). The experiment in a line: ELISA by the method of Example 15, SARS-CoV-2 antigen. A general note: ELISA stands for enzyme-linked immunosorbent assay.
The target in test [2] is RSV-F (amino acids 1-529), (Extracellular Domain) protein (His tag), ABIN2006856 (respiratory syncytial virus) (UniProt P03420). The experiment in a line: ELISA, RSV F coated, anti-human IgG-HRP.

Take “SEQ ID NO: 139, b1b2-b1b2-Fc (NRP1, E319A, double b1b2) (Fc fusion)”: the pEC50 in test [1] is 7.09. Take “SEQ ID NO: 204, b1b2-Fc-ACE2 (NRP1, K358E, K373E, R513E, K514E, K516E) (Fc fusion)”: the negative-log EC50 (pEC50) in test [2] was 7.04. For the substance “SEQ ID NO: 128, b1b2-Fc (NRP1, K358E, K373E, R513E, K514E, K516E) (Fc fusion)”, the pEC50 in test [2] was 7.37.

As usually defined, the pEC50 is the EC50 on a negative log10 scale, so that one unit is a factor of ten. Read a high pEC50 as a low EC50.
